Source: patent US20220002397A1 (Hoffmann-La Roche, published 2022)
Where a chain is given by its changes, count along the chain named. Names may count otherwise. One block for each binder: values may come before it.

Columns and labels:
[1] = biological target: T1, VEGF-121-His (inhouse production) (human, UniProt P15692 207-395); assay: inhibition ELISA: antibody pre-incubated with 0.34 nM VEGF-121-His, binding to coated biotinylated VEGF-R1 detected
T1 construct: also called hVEGF-A121; VEGF-A121; not shown: His tag
T1 sequence: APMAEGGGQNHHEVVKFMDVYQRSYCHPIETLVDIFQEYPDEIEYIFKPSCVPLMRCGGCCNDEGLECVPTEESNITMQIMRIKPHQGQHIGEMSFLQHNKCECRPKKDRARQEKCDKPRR
Description: 384 well streptavidin plates (Nunc/Microcoat #11974998001) were coated with 0.25 μg/mlbiotinylated VEGF-R1 or […] biotinylated VEGF-R2 (inhouse production, each 25 μl/well in DPBS (1×) (PAN, #PO4-36500)). Plates were incubated for 1 h at room temperature. […] This pre-incubation step was carried out in 384 well PP plates (Weidmann medical technology, #23490-101) in 1×OSEP buffer (bidest water, 10×, Roche, #11 666 789 001+0.5% Bovine Serum Albumin Fraction V, fatty acid free, Roche, #10 735 086 001+0.05% Tween 20). Plates were incubated for 1 h at room temperature. After washing VEGF-R1/VEGF-R2 coated streptavidin plates 3 times with 90 μl/well PBST-buffer (bidest water, 10×PBS Roche #11666789001+0.1% Tween 20), 25 μl of samples from the VEGF-antibody pre-incubation plate were transferred to coated strepavidin plates which were subsequently incubated for 1 h at room temperature. After washing 3 times with 90 μl/well PBST-buffer, 25 μl/well detection antibody (anti His POD, Bethyl, #A190-114P, 1:12000) in 1×OSEP was added. After incubation for 1 h at room temperature plates were washed 3 times with 90 μl PBST-buffer. 25 μl TMB (Roche, #11 835 033 001) was added to all wells simultaneously. After 10 min incubation at room temperature, signals were detected at 370 nm/492 nm on a Tecan Safire 2 Reader. […]

[2] = biological target: T1, VEGF-121-His (inhouse production); assay: SPR, hVEGF-A121 captured by anti-His antibody, Fab as analyte, 37 C
Description: (§1) An anti-His capturing antibody (GE Healthcare 28995056) was immobilized to a Series S Sensor Chip C1 (GE Healthcare 29104990) using standard amine coupling chemistry resulting in a surface densitiy of 500-1000 resonance units (RU). As running and dilution buffer, HBS-P+(10 mM HEPES, 150 mM NaCl pH 7.4, 0.05% Surfactant P20) was used, the measurement temperature was set to 25° C. and 37° C., respectively. hVEGF-A121 was captured to the surface with resulting capture levels ranging from 5 to 35 RU. Dilution series of anti-VEGF antibodies (0.37-30 nM) were injected for 120 s, dissociation was monitored for at least 600 s at a flow rate of 30 μl/min. The surface was regenerated by injecting 10 mM Glycine pH 1.5 for 60 s. Bulk refractive index differences were corrected by subtracting blank injections and by subtracting the response obtained from the control flow cell without captured hVEGF-A121. Rate constants were calculated using the Langmuir 1:1 binding model within the Biacore Evaluation software.
(§2) The affinity of the antibodies was determined by SPR using the same methods as described in Example 1.

[3] = biological target: T1, VEGF-121-His (inhouse production); assay: SPR (Biacore), hVEGF-A121 captured by anti-His antibody on C1 chip, Fab as analyte, 1:1 Langmuir model, 25 C; 25 C; Example 1
Description: VEGF-binding of antibody VEGF-0089 Fab fragment was assessed by surface plasmon resonance (SPR) as described below.
as §1

[4] = biological target: T1, VEGF-121-His (inhouse production); assay: SPR, hVEGF-A121 captured by anti-His antibody, Fab as analyte, 25 C; 25 C; Table 3 (later example)
Description: as §1, §2

[5] = biological target: T1, VEGF-121-His (inhouse production); assay: SPR, hVEGF-A121 captured by anti-His antibody, Fab as analyte, 25 C
Description: as §1, §2

binding result [1]: binds
B1: VEGF-P1AD8674 Fab (Fab, V domains shown)
VH: EVQLVESGGGLVQPGGSLRLSCAASGFTFTNYAMTWVRQAPGKGLEWVSSIGNGGGIYTYYADSVKGRFTISRNNAENTLYLQMNSLRAEDTAVYYCAKGDNLFDSWGPGTLVTVSS
VL: DIQMTQSPASLSASVGDRVTITCRASQSIYSSLNWYQQKPGKAPKLLIYASTLQSGVPSRFSGSASGTDFTLTISSLQPEDVATYYCQQYQNFPRTFGQGTKLEIKR
notes: Variant of VEGF-0089 with D72N, S74A, K75E (Kabat) in H-FR3

Kd [2]: 0.11 nM
Kd [3]: 0.134 nM
Kd [4]: 0.143 nM
B2: VEGF-0089 Fab fragment (Fab, V domains shown)
VH: B1 VH with N74D, A76S, E77K
VL: B1 VL
notes: Parent antibody; also called antibody VEGF-0089

Kd [2]: 0.085 nM
Kd [5]: 0.074 nM
B3: VEGF-0112 Fab (Fab, V domains shown)
VH: B1 VH with N53S, N74D, A76S, E77K
VL: B1 VL
notes: Variant of VEGF-0089 with N52aS (Kabat) in H-CDR2
